From patent US20250223369A1 (WISTAR INSTITUTE OF ANATOMY AND BIOLOGY, published 2025)
Values belong to the binder of their own block, whether it stands above or below them.

Columns and labels:
[1] = target: T1, human Siglec 7 on cells (human, UniProt Q9Y286 19-467); test: cell-based or functional assay
[2] = target: T2, Siglec 9 on 293T cells (UniProt Q9Y336 18-463, limits assumed); test: flow cytometry on Siglec 9 overexpressing HEK293T cells
T2 construct: whole, on cells
From the text: BD LSRII flow cytometer was used for staining of cells. BD FACS Aria cell sorter (BD Biosciences) was used for the sorting of Siglec 7/FSHR stably expressing cells. Anti-human antibodies used were directly fluorochrome conjugated. […] For the non-conjugated primary antibodies, PE-secondary anti-human (H+L) (Invitrogen), PE/AF647—secondary anti-human F(ab′)₂ (Jackson ImmunoResearch Laboratories Inc) and APC—secondary anti-mouse IgG (Poly4053, BioLegend) were used. Live/Dead Violet viability kit (Invitrogen) was used to exclude dead cells from analysis.
Three mAbs targeting Siglec 7 were sequenced and studied in more detail. […] (FIG. 10B). […] Cells were labeled with DAPI (nuclei), GFP (Siglec 7) and Texas Red (Anti-Siglec 7).

[3] = target: T3, recombinant human Siglec-7 protein (human, UniProt Q9Y286 19-353, limits assumed); test: SPR, DB7.2 and recombinant human Siglec-7 protein
T3 sequence (Q9Y286 19-353 limits assumed): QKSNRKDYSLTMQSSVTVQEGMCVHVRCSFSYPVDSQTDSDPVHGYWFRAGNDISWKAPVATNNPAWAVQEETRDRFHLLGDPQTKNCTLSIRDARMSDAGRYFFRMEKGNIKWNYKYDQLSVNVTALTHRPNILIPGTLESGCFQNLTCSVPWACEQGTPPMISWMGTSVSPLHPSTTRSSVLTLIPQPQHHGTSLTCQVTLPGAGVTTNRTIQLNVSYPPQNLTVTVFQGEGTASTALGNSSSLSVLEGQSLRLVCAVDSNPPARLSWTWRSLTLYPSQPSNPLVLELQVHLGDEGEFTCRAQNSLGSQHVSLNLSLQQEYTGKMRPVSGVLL

[4] = target: T3, recombinant human Siglec-7 protein; test: SPR, titration of anti-Siglec-7 on recombinant human Siglec-7 protein
[5] = target: T1, human Siglec 7 on cells; test: flow cytometry of human NK cells with sera of DMAb-electroporated mice, anti-human IgG

T2 sequence (Q9Y336 18-463 limits assumed): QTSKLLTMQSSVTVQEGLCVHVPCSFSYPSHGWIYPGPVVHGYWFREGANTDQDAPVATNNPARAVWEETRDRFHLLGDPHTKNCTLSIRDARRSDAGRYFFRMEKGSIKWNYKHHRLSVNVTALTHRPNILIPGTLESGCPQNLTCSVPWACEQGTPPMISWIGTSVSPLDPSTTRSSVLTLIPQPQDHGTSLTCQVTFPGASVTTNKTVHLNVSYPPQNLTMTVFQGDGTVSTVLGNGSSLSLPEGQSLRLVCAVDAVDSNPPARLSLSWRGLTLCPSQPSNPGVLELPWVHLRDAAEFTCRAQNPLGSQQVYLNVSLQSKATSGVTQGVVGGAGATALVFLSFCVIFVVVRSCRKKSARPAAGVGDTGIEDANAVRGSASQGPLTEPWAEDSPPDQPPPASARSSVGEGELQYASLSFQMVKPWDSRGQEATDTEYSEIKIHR
T1 sequence (Q9Y286 19-467): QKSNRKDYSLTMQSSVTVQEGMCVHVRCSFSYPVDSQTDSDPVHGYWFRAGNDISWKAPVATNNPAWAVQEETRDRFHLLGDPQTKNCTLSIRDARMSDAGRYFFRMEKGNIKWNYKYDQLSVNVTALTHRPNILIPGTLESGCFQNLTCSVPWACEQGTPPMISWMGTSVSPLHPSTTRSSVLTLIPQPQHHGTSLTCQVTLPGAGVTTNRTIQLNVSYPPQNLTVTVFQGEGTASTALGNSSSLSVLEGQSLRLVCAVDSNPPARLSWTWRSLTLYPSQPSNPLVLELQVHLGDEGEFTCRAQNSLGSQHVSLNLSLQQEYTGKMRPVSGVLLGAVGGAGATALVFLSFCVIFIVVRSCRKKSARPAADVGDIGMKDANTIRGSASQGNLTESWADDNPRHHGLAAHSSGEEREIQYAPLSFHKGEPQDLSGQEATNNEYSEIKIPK

B2: DB-S7-1 anti-Siglec 7 antibody (antibody, V domains shown)
VH: QVQLVESGGGVVQPGRSLRLSCAASGFTFRTDAMHWVRQAPGKGLEWVAVIWYDGSIKYHADSVKGRFTISRDNSKNTLYLEMNSLRAEDTAVYYCARDRSNSLDHWGQGILVSVSS
VL: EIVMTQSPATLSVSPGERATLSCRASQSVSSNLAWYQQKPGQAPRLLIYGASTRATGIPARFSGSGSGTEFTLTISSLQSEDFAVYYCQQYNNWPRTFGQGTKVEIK
notes: Raised in H2L2 mice (hybridoma clone in the first screens), then expressed as human IgG1 HC and LC from pVax1 in Expi293F cells or in mice (DMAb); also called DB7.1; DB-S7-1 DMAb
binding result [2]: no binding
binding result [5]: binds

B3: DB7.2_TM Mod (antibody, V domains shown)
VH: B2 VH
VL: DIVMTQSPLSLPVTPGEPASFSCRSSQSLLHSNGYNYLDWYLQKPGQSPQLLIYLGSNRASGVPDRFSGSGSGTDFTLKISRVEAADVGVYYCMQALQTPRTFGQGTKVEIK
killing of OVISE cells with human PBMCs (cell index vs dose), IC50 [1]: 192 nM

Further lines, with some results ahead:

binding result [2]: no binding
koff [3]: 3.6e-05 s⁻¹
kon [3]: 830000 M⁻¹ s⁻¹
t1/2 [3]: 5.33 h
Kd [4]: 0.044 nM
B1: DB-S7-2 anti-Siglec 7 antibody (antibody, V domains shown)
VH: B2 VH
VL: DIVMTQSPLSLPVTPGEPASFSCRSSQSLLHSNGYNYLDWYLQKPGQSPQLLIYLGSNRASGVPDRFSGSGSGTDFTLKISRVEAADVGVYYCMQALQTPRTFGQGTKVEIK
notes: Raised in H2L2 mice (hybridoma clone in the first screens), then expressed as human IgG1 HC and LC from pVax1 in Expi293F cells or in mice (DMAb); also called DB7.2; DB-S7-2 DMAb
killing of OVISE cells with human PBMCs (cell index vs dose), IC50 [1]: 82.7 nM
killing of PEO4 cells with human PBMCs (xCELLigence), EC50 [1]: 68.9 nM

binding result [2]: no binding
B4: DB-S7-7 anti-Siglec 7 antibody (antibody, V domains shown)
VH: B2 VH
VL: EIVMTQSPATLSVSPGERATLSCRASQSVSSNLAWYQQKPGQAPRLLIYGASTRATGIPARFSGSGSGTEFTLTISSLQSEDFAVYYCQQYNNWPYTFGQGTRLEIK
notes: Raised in H2L2 mice (hybridoma clone in the first screens), then expressed as human IgG1 HC and LC from pVax1 in Expi293F cells or in mice (DMAb); also called DB7.7; DB-S7-7 DMAb
